Results as given in the supplement of paper PMC9233669.
Variants at the floor of the assay were thinned out.

What was measured:
biotinyl-Trp-oxazolone = assay: self-aminoacylation, catalytic enhancement (BWO) (fold over background); higher = more active; k-Seq, kA / k0A0; sequences stand for … in GGGAAUGGAUCCACAUCUACGAAUUC…UUCACUGCAGACUUGACGAAGCUG
How it was run: (§1)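 The uncatalyzed rate is the low-activity peak of a bimodal Gaussian fit, and catalytic enhancement is median kA divided by it. The kA values came from pseudo-first-order fits, with 1000 bootstraps, of per-sequence fraction reacted measured by streptavidin capture, triplicate qPCR and Illumina sequencing. Mutagenized RNA pools with a 21-nt variable region (0.43 μM) were reacted with each biotinyl-aminoacyl-oxazolone at 2–1250 μM in 50 μL HEPES/NaCl/KCl/MgCl2/CaCl2 buffer with 5% acetonitrile, pH 6.9–7.0, for 90 minutes at room temperature.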

biotinyl-Phe-oxazolone = assay: self-aminoacylation, catalytic enhancement (BFO) (fold over background); higher = more active; k-Seq, kA / k0A0; sequences stand for … in GGGAAUGGAUCCACAUCUACGAAUUC…UUCACUGCAGACUUGACGAAGCUG
How it was run: as §1

Row | Sequence | self-aminoacylation (biotinyl-Trp-oxazolone) | self-aminoacylation (biotinyl-Phe-oxazolone)
1 | AAGUCUACUAAUAGUCGCAAG [Fam3.1 aminoacylation ribozyme variant] | 2.11 | 3.17
2 | AAGUGUGCUAAUAGUCGAAAG [Fam3.1 aminoacylation ribozyme variant] | 4.55 | 11.5
3 | AAGUUUCCUAAUAGUCGCACG [Fam3.1 aminoacylation ribozyme variant] | 2.23 | 2.96
4 | AAGUUUGCUAAUAGCCGCAAG [Fam3.1 aminoacylation ribozyme variant] | 2.2 | 6.96
5 | AAGUUUGCUAAUGGUCGCAAA [Fam3.1 aminoacylation ribozyme variant] | 2.87 | 2.48
6 | AAGUUUGCUAGUAGUCGCACG [Fam3.1 aminoacylation ribozyme variant] | 2.21 | 3.09
7 | AAGUUUUCUAUUAGUCGCAAG [Fam3.1 aminoacylation ribozyme variant] | 2.07 | 2.22
8 | ACUCACUUCAAGCAAUCGGUC [Fam1B.1 aminoacylation ribozyme variant] | 5.36 | 9.3
9 | AUACUUCAAACAAUCGGUCUC [Fam1A.1 aminoacylation ribozyme variant] | 7.89 | 13.5
10 | AUUACCAUGGUCAUCGAGGGA [Fam2.1 aminoacylation ribozyme variant] | 2.58 | 2.21
11 | AUUCACCUAGUUCAUCGGGUA [Fam2.2 aminoacylation ribozyme variant] | 2.37 | 5.42
12 | CAACGUCAAACAAUCGGUCUG [Fam1A.1 aminoacylation ribozyme variant] | 2.6 | 3.29
13 | CAACUUCAAACAAUCGGUCAG [Fam1A.1 aminoacylation ribozyme variant] | 11.9 | 19.5
14 | CAACUUCAAACAAUCUGUCUG [Fam1A.1 aminoacylation ribozyme variant] | 2.14 | 4.35
15 | CAACUUCAAACGAUCGGUCUG [Fam1A.1 aminoacylation ribozyme variant] | 2.65 | 2.25
16 | CAAGACUUCAAGCAAUCGGUC [Fam1B.1 aminoacylation ribozyme variant] | 9.73 | 15.3

Row | Sequence | self-aminoacylation (biotinyl-Trp-oxazolone) | self-aminoacylation (biotinyl-Phe-oxazolone)
17 | CCACACCUCAAUCAAUCGGUC [Fam1B.1 aminoacylation ribozyme variant] | 2.88 | 3.88
18 | CCACACUCCAACCAAUCGGUC [Fam1B.1 aminoacylation ribozyme variant] | 2.18 | 3.55
19 | CCACACUUCAACCAAUCGGUU [Fam1B.1 aminoacylation ribozyme variant] | 11.9 | 12.3
20 | CCACACUUCAACCGAUCGGUC [Fam1B.1 aminoacylation ribozyme variant] | 5.96 | 3.75
21 | CCACACUUCAAGUAAUCGGUC [Fam1B.1 aminoacylation ribozyme variant] | 9.7 | 16.4
22 | CCACCCUUCAAUCAAUCGGUC [Fam1B.1 aminoacylation ribozyme variant] | 20.9 | 28.6
23 | CCACGCCUCAAGCAAUCGGUC [Fam1B.1 aminoacylation ribozyme variant] | 6.73 | 10.4
24 | CCACUCUUCAAGGAAUCGGUC [Fam1B.1 aminoacylation ribozyme variant] | 3.24 | 3
25 | CCACUUCAAAAAAUCGGUCUG [Fam1A.1 aminoacylation ribozyme variant] | 12.1 | 15.2
26 | CCACUUCAAACAUUCGGUCUG [Fam1A.1 aminoacylation ribozyme variant] | 2.73 | 5.58
27 | CCACUUCAAACGAUCGGUCUG [Fam1A.1 aminoacylation ribozyme variant] | 2.62 | 3.03
28 | CCACUUCAAAUAAUCGGUCUG [Fam1A.1 aminoacylation ribozyme variant] | 15.2 | 17.9
29 | CCAGACUUCAAGGAAUCGGUC [Fam1B.1 aminoacylation ribozyme variant] | 5.9 | 6.35
30 | CCAUACUUCAAACAAUCGGUC [Fam1B.1 aminoacylation ribozyme variant] | 30.3 | 66.4
31 | CCCCACUUAAAGCAAUCGGUC [Fam1B.1 aminoacylation ribozyme variant] | 2.05 | 2.09
